Data published in patent US20240272170A1 (QUANTUM SI, published 2024).
Changes are numbered by the printed parent chain. Numbers in names are those of the source.

T1: RL peptide (Octet assay of PS621 variants)
T1 construct: RXKLDEESILKQK with X = L
T1 peptide: RLKLDEESILKQK

T2: HA peptide (Octet assay of PS621 variants)
T2 construct: XAKLDEESILKQK with X = H
T2 peptide: HAKLDEESILKQK

T3: KA peptide (Octet assay of PS621 variants)
T3 construct: XAKLDEESILKQK with X = K
T3 peptide: KAKLDEESILKQK

B1: PS1106 (designed binder)
chain: MHSKFSHAGRICGAKFKVGEPIYRCKECSFDDTCVLCVNCFNPKDHTGHHVYVTICTEFNNGICDCGDKEAWNHTLFCKAEEG
notes: Variant of PS621
B2: PS1108 (designed binder)
chain: B1 chain with V53T, F59R
notes: Variant of PS621
B3: PS1109 (designed binder)
chain: B1 chain with V53T, N61K
notes: Variant of PS621
B4: PS1110 (designed binder)
chain: B1 chain with V53T, I63E
notes: Variant of PS621
B5: PS1111 (designed binder)
chain: B1 chain with V53T, E70S
notes: Variant of PS621
B6: PS1112 (designed binder)
chain: B1 chain with V53T, E70T
notes: Variant of PS621
B7: PS1113 (designed binder)
chain: B1 chain with V53T, H74K
notes: Variant of PS621
B8: PS1114 (designed binder)
chain: B1 chain with T47R, V53T, F59R
notes: Variant of PS621
B9: PS1116 (designed binder)
chain: B1 chain with G48Y, V53T
notes: Variant of PS621
B10: PS1117 (designed binder)
chain: B1 chain with T47L, V53T
notes: Variant of PS621
B11: PS1121 (designed binder)
chain: B1 chain with T47K, V53T
notes: Variant of PS621
B12: PS1122 (designed binder)
chain: B1 chain with T47L, V53T, I63E, E70T
notes: Variant of PS621 (T47L, I63E, E70T)
B13: PS557 (other)
chain: MPTAASATESAIEDTPAPARPEVDGRTKPKRQPRYHVVLWNDDDHTYQYVVVMLQSLFGHPPERGYRLAKEVDTQGRVIVLTTTREHAELKRDQIHAFGYDRLLARSKGSMKASIEAEE
notes: Natural parent ClpS protein, expressed in E. coli and purified; also called WT; wild-type protein
B14: PS796 (designed binder)
chain: B13 chain with N41D, V72M
notes: also called N41D, V72M
B15: PS797 (designed binder)
chain: B13 chain with N41D, V72M, Q75L
notes: Variant of PS557; also called N41D, V72M, Q75L
B16: PS798 (designed binder)
chain: B13 chain with V72M, Q75L
notes: Variant of PS557; also called V72M, Q75L
B17: PS824 (designed binder)
chain: B13 chain with I12F, N41D, Q55R, V72M
notes: Variant of PS557
B18: PS831 (designed binder)
chain: B13 chain with P62R, E63K, V72M, Q75L
notes: Variant of PS557
B19: PS838 (designed binder)
chain: B13 chain with N41D, P62R, V72M
notes: Variant of PS557; also called V72M, N41D, P62R
B20: PS852 (designed binder)
chain: B13 chain with R31H, N41D, Q55R, V72M
notes: Variant of PS557
B21: PS801/PS814 (designed binder)
chain: B13 chain with E63K
notes: also called E63K
B22: PS808 (designed binder)
chain: B13 chain with Q55R
notes: Variant of PS557; also called Q55R
B23: PS809 (designed binder)
chain: B13 chain with V72M
notes: Variant of PS557; also called V72M
B24: PS819 (designed binder)
chain: B13 chain with N41D, E63K, V72M
notes: Variant of PS557; also called V72M, N41D, E63K
B25: PS828 (designed binder)
chain: B13 chain with N41D, P62R, Q75L
notes: Variant of PS557
B26: PS830 (designed binder)
chain: B13 chain with N41D, P62R, E63K, V72M, Q75L
notes: Variant of PS557
B27: PS847 (designed binder)
chain: B13 chain with N41D, Q55R, V72M
notes: Variant of PS557

Columns and labels:
[1] = target: T1, RL peptide (Octet assay of PS621 …); assay: Octet (BLI), 30 C
Description: (§1) Peptides of the sequence RXKLDEESILKQK (SEQ ID NO: 1076) were also used to evaluate the penultimate residue effect.

[2] = target: T4, RA peptide (Octet assay of PS621 variants); assay: Octet (BLI), 30 C
T4 construct: X… with X = R
Description: as §1

[3] = target: T2, HA peptide (Octet assay of PS621 …); assay: Octet (BLI), 30 C
[4] = target: T3, KA peptide (Octet assay of PS621 …); assay: Octet (BLI), 30 C
LA peptide = target: T5, LA peptide; assay: BLI (Octet), peptide on sensor, purified protein in solution
T5 construct: The peptide was coated on the Octet sensor; also called peptide with N-terminal leucine and penultimate alanine
Description: (§2) In the high-throughput assay, Octet sensors are coated with the peptide of interest and dipped in buffer containing the purified protein. An approximation of relative binding can be obtained by comparing the response after 200 seconds for each protein. Each protein has approximately the same molecular mass and is used at the same concentration, so ranking the proteins by response level in this assay gives an approximation of which proteins have improved binding. Studying the on and off-rate can also give insight into the mechanism of binding.

VA peptide = target: T6, VA peptide; assay: as above
T6 construct: The peptide was coated on the Octet sensor; also called peptide with N-terminal valine and penultimate alanine
Description: as §2

AA peptide = target: T7, AA peptide; assay: as above
T7 construct: The peptide was coated on the Octet sensor; also called peptide with N-terminal alanine and penultimate alanine
Description: as §2

| Binder | Octet response [1] | Octet response [2] | Octet response [3] | Octet response [4] | Octet response after 200 sec association (LA peptide) [nm] | Octet response after 200 sec association (VA peptide) [nm] | Octet response after 200 sec association (AA peptide) [nm] |
| --- | --- | --- | --- | --- | --- | --- | --- |
| B1 | 9 | 7.6 | 0.6 | 4.7 |  |  |  |
| B2 | 10.3 | 8.2 | 1.2 | 5 |  |  |  |
| B3 | 10.5 | 8.2 | 0.6 | 4.7 |  |  |  |
| B4 | 9.8 | 7 | 2.4 | 6.6 |  |  |  |
| B5 | 10 | 7.9 |  | 2.7 |  |  |  |
| B6 | 9.9 | 8.6 |  | 2.3 |  |  |  |
| B7 | 9.3 | 7.7 | 0.2 | 3.8 |  |  |  |
| B8 | 9.7 | 9.2 | 1.2 | 5.3 |  |  |  |
| B9 | 8.5 | 7.1 |  | 1.2 |  |  |  |
| B10 | 9 | 8.6 | 0.5 | 3.5 |  |  |  |
| B11 | 10.6 | 9.5 | 2.2 | 5.4 |  |  |  |
| B12 | 11.2 | 9.9 | 1.3 | 4.6 |  |  |  |
| B13 |  |  |  |  | 9.8 | 5.9 | 0.01 |
| B14 |  |  |  |  | 11.9 | 11.3 | 3.5 |
| B15 |  |  |  |  | 12 | 11.2 | 3.2 |
| B16 |  |  |  |  | 13.9 | 12.9 | 3.8 |
| B17 |  |  |  |  | 13.8 | 13.3 | 3.9 |
| B18 |  |  |  |  | 12.2 | 11 | 1.4 |
| B19 |  |  |  |  | 13.4 | 11.6 | 3 |
| B20 |  |  |  |  | 9.7 | 8.3 | 1.7 |
| B21 |  |  |  |  | 10.7 | 5.73 | 0.0017 |
| B22 |  |  |  |  | 10.4 | 5.71 | 0.0027 |
| B23 |  |  |  |  | 10.8 | 7.77 | 0.0226 |
| B24 |  |  |  |  | 11.1 | 7.42 | 0.519 |
| B25 |  |  |  |  | 7.75 | 3.24 | 0.469 |
| B26 |  |  |  |  | 8.54 | 6.64 | 0.215 |
| B27 |  |  |  |  | 9.92 | 6.68 | 0.288 |
